Source: US20050176083A1

Assays:
[1] = biological target: wild-type human activated protein C (recombinant, thrombin-activated) (human) (UniProt P04070); assay: cell-based or functional assay
[2] = biological target: APC mutant QGNSEDY (ALL) (human) (UniProt P04070); assay: cell-based or functional assay

Substance: human protein S (from UniProt P07225 42-676)
- APTT clotting time in protein S deficient human plasma with APC, highest protein S concentration [1]: 150 s
- APTT clotting time in protein S deficient human plasma with APC, in absence of protein S [1]: 100 s
- APTT clotting time in protein S deficient human plasma with APC, in absence of protein S [2]: 160 s
- APTT clotting time in protein S deficient human plasma with APC, protein S added [2]: 350 s
